Assay results reported in patent publication US20180273635A1 (Zymeworks, published 2018).

Experiments:
Recombinant human HER2 [1] = molecular target: T1, Recombinant human HER2 (human, UniProt P04626 23-652); test: calculated from the SPR Ka ratio to WT v10013;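 also: SPR at 25 °C with constructs captured on an anti-human Fc chip and HER2 extracellular domain as analyte, kinetics fitted to a 1:1 Langmuir model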
T1 construct: extracellular domain; Analyte of the SPR assays; also called HER2 ECD; ECD2 of HER2
Experimental: The affinity towards HER2 ECD of the samples was measured by SPR on a Biacore T200 as follows. Between 2000 and 4000 RU of anti-human Fc injected at concentration between 5 and 10 μg/ml was immobilized on a CM5 chip using standard amine coupling. Antigen-binding constructs were captured on the anti-human Fc (injected at concentration at 0.51 microg/mL in PBST, 1 min at 10 microl/min) at response levels ranging from 120-270 RU. […] HER2 dilutions were analyzed in duplicates. Sensograms were fit globally to a 1: 1 Langmuir binding model, using the software provided with the Biacore T200. All experiments were conducted at 25° C.

Recombinant human HER2 [2] = molecular target: T1, Recombinant human HER2; test: SPR, Biacore T200, 25 C; variant captured on anti-human Fc, HER2 flowed;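 also: HER2 extracellular domain analyte run as duplicate dilutions over amine-coupled anti-Fc on a CM5 chip, rates from global sensorgram fitting with a 1:1 Langmuir model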
Recombinant human HER2 [3] = molecular target: T1, Recombinant human HER2; test: SPR, 25 C; Ka ratio to WT v10013;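 also: constructs captured via anti-human Fc on CM5 chip, HER2 ECD as analyte in duplicate dilutions, sensorgrams globally fit to 1:1 Langmuir model on Biacore T200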

B1: Variant 14034 (antibody, human IgG1, kappa)
heavy: EVQLVESGGGLVQPGGSLRLSCAASGFTFTDYTMDWVRQAPGKGLEWVADVNPNSGGSIYNQRFKGRFTLSVDRSKNTLYLQMNSLRAEDTAVYYCARNLGPSFYFDYWGQGTLVTVSSASTKGPSVFPLAPSSKSTSGGTAALGCLVKDYFPEPVTVSWNSGALTSGVHTFPAVLQSSGLYSLSSVVTVPSSSLGTQTYICNVNHKPSNTKVDKKVEPKSCDKTHTCPPCPAPELLGGPSVFLFPPKPKDTLMISRTPEVTCVVVDVSHEDPEVKFNWYVDGVEVHNAKTKPREEQYNSTYRVVSVLTVLHQDWLNGKEYKCKVSNKALPAPIEKTISKAKGQPREPQVYVYPPSRDELTKNQVSLTCLVKGFYPSDIAVEWESNGQPENNYKTTPPVLDSDGSFALVSKLTVDKSRWQQGNVFSCSVMHEALHNHYTQKSLSLSPG
light: not shown
chain: not shown
notes: OA (one-armed) format; clones 3057, 8781, 4372; also called v14034
Question: Which ΔΔG (Recombinant human HER2 [1]) does the source give for B1 here?
Answer: -1.4 kcal/mol

Question: What about the Kd (Recombinant human HER2 [2]) of the same binder?
Answer: 1.5 nM

Question: And the koff (Recombinant human HER2 [2])?
Answer: 8.5e-05 s⁻¹

Question: What about the kon (Recombinant human HER2 [2]) of the same binder?
Answer: 59000 M⁻¹ s⁻¹

Question: And the “Ka, mut/Ka, WT” value (Recombinant human HER2 [3])?
Answer: 12 fold

B2: Variant 14038 (antibody, human IgG1, kappa)
heavy: EVQLVESGGGLVQPGGSLRLSCAASGFTFQDYTMDWVRQAPGKGLEWVADVNPNSGGSIYNQRFKGRFTLSVDRSENTLYLQMNSLRAEDTAVYYCARNLGPSFYFDYWGQGTLVTVSSASTKGPSVFPLAPSSKSTSGGTAALGCLVKDYFPEPVTVSWNSGALTSGVHTFPAVLQSSGLYSLSSVVTVPSSSLGTQTYICNVNHKPSNTKVDKKVEPKSCDKTHTCPPCPAPELLGGPSVFLFPPKPKDTLMISRTPEVTCVVVDVSHEDPEVKFNWYVDGVEVHNAKTKPREEQYNSTYRVVSVLTVLHQDWLNGKEYKCKVSNKALPAPIEKTISKAKGQPREPQVYVYPPSRDELTKNQVSLTCLVKGFYPSDIAVEWESNGQPENNYKTTPPVLDSDGSFALVSKLTVDKSRWQQGNVFSCSVMHEALHNHYTQKSLSLSPG
light: not shown
chain: not shown
notes: OA (one-armed) format; clones 8782, 1811, 4372; also called v14038
Question: B2 was tested. Which ΔΔG (Recombinant human HER2 [1]) did it give?
Answer: -1.5 kcal/mol

Question: And the Kd (Recombinant human HER2 [2])?
Answer: 1.4 nM

Question: What about the koff (Recombinant human HER2 [2]) of the same binder?
Answer: 6.2e-05 s⁻¹

Question: And the kon (Recombinant human HER2 [2])?
Answer: 43000 M⁻¹ s⁻¹

Question: And the “Ka, mut/Ka, WT” value (Recombinant human HER2 [3])?
Answer: 12 fold

B3: Variant 14046 (antibody, human IgG1, kappa)
heavy: EVQLVESGGGLVQPGGSLRLSCAASGFTFTDYTMDWVRQAPGKGLEWVADVNPNSGGSIYNQRFKGRFTLSVDRSWNTLYLQMNSLRAEDTAVYYCARNLGPSFYFDYWGQGTLVTVSSASTKGPSVFPLAPSSKSTSGGTAALGCLVKDYFPEPVTVSWNSGALTSGVHTFPAVLQSSGLYSLSSVVTVPSSSLGTQTYICNVNHKPSNTKVDKKVEPKSCDKTHTCPPCPAPELLGGPSVFLFPPKPKDTLMISRTPEVTCVVVDVSHEDPEVKFNWYVDGVEVHNAKTKPREEQYNSTYRVVSVLTVLHQDWLNGKEYKCKVSNKALPAPIEKTISKAKGQPREPQVYVYPPSRDELTKNQVSLTCLVKGFYPSDIAVEWESNGQPENNYKTTPPVLDSDGSFALVSKLTVDKSRWQQGNVFSCSVMHEALHNHYTQKSLSLSPG
light: not shown
chain: not shown
notes: OA (one-armed) format; clones 7844, 8781, 4372; also called v14046
Question: For B3, which ΔΔG (Recombinant human HER2 [1]) is on record?
Answer: -3.2 kcal/mol

Question: What about the Kd (Recombinant human HER2 [2]) of the same binder?
Answer: ~0.091 nM

Question: And the koff (Recombinant human HER2 [2])?
Answer: ~9.1e-06 s⁻¹

Question: And the kon (Recombinant human HER2 [2])?
Answer: 100000 M⁻¹ s⁻¹

Question: And the “Ka, mut/Ka, WT” value (Recombinant human HER2 [3])?
Answer: ~212 fold

B4: Variant 14037 (antibody, human IgG1, kappa)
heavy: EVQLVESGGGLVQPGGSLRLSCAASGFTFTDYTMDWVRQAPGKGLEWVADVNPNSGGSIYNQRFKGRFTLSVDRSENTLYLQMNSLRAEDTAVYYCARNLGPSFYFDYWGQGTLVTVSSASTKGPSVFPLAPSSKSTSGGTAALGCLVKDYFPEPVTVSWNSGALTSGVHTFPAVLQSSGLYSLSSVVTVPSSSLGTQTYICNVNHKPSNTKVDKKVEPKSCDKTHTCPPCPAPELLGGPSVFLFPPKPKDTLMISRTPEVTCVVVDVSHEDPEVKFNWYVDGVEVHNAKTKPREEQYNSTYRVVSVLTVLHQDWLNGKEYKCKVSNKALPAPIEKTISKAKGQPREPQVYVYPPSRDELTKNQVSLTCLVKGFYPSDIAVEWESNGQPENNYKTTPPVLDSDGSFALVSKLTVDKSRWQQGNVFSCSVMHEALHNHYTQKSLSLSPG
light: not shown
chain: not shown
notes: OA (one-armed) format; clones 7843, 7919, 4372; also called v14037
Question: Which results are given for B4?
Answer: ΔΔG (Recombinant human HER2 [1]): -1.5 kcal/mol; Kd (Recombinant human HER2 [2]): 1.4 nM; koff (Recombinant human HER2 [2]): 8.3e-05 s⁻¹; kon (Recombinant human HER2 [2]): 59000 M⁻¹ s⁻¹; Ka, mut/Ka, WT (Recombinant human HER2 [3]): 12 fold

B5: Variant 14044 (antibody, human IgG1, kappa)
heavy: EVQLVESGGGLVQPGGSLRLSCAASGFTFTDYTMDWVRQAPGKGLEWVADVNPNSGGSIYNQRFKGRFTLSVDRSWNTLYLQMNSLRAEDTAVYYCARNLGPWFYFDYWGQGTLVTVSSASTKGPSVFPLAPSSKSTSGGTAALGCLVKDYFPEPVTVSWNSGALTSGVHTFPAVLQSSGLYSLSSVVTVPSSSLGTQTYICNVNHKPSNTKVDKKVEPKSCDKTHTCPPCPAPELLGGPSVFLFPPKPKDTLMISRTPEVTCVVVDVSHEDPEVKFNWYVDGVEVHNAKTKPREEQYNSTYRVVSVLTVLHQDWLNGKEYKCKVSNKALPAPIEKTISKAKGQPREPQVYVYPPSRDELTKNQVSLTCLVKGFYPSDIAVEWESNGQPENNYKTTPPVLDSDGSFALVSKLTVDKSRWQQGNVFSCSVMHEALHNHYTQKSLSLSPG
light: not shown
chain: not shown
notes: OA (one-armed) format; clones 8774, 7919, 4372; also called v14044
Question: With B5 as the binder, how does the ΔΔG (Recombinant human HER2 [1]) read?
Answer: -2.4 kcal/mol

Question: And the Kd (Recombinant human HER2 [2])?
Answer: 0.33 nM

Question: And the koff (Recombinant human HER2 [2])?
Answer: 3.2e-05 s⁻¹

Question: What about the kon (Recombinant human HER2 [2]) of the same binder?
Answer: 96000 M⁻¹ s⁻¹

Question: And the “Ka, mut/Ka, WT” value (Recombinant human HER2 [3])?
Answer: 57 fold
